The conditions of data set [1]: SEC-MALS. A general note: SEC sorts molecules by how far they enter the pores of the column.
Data set [2] has as its target recombinant 42 kDa processed form of the P. falciparum merozoite surface protein 1, FVO allele (MSP1_(42)-FVO) (Plasmodium falciparum). Briefly: SEC-MALS.

As for “recombinant 42 kDa processed form of the P. falciparum merozoite surface protein 1, FVO allele (MSP1_(42)-FVO)”, the “percent of the total peak area as aggregate” value in data set [1] was “approximately 1.7 MDa for 96% of the total peak area”.
Consider “recombinant 42 kDa processed form of the P. falciparum merozoite surface protein 1, FVO allele (MSP1_(42)-FVO) (domain or fragment)”, for which, in data set [2], the percent of the protein as dimers is 72%; the percent of the protein as multimers amounted to 28%; the stoichiometry N (commonly the number of molecules, sites or subunits per partner or assembly) turned out to be 2.

Source of the values: paper PMC3366955.
